What is called Kd is the equilibrium constant for the complex coming apart.

This passage reports Kd results from the Immune Epitope Database (IEDB).

In one assay the target is HLA-A*02:17. As to the kind of experiment: IEDB peptide-MHC binding, purified MHC/competitive/radioactivity; filed as Kd, often an IC50 or EC50 that approximates it; ≥ and ≤ were set here for values at or beyond the usual limits of such assays.
Assay [1] has as its target HLA-A*02:01. Described as above.
In the next assay the target is HLA-B*46:01. As to the kind of experiment: IEDB peptide-MHC binding, purified MHC/competitive/fluorescence; filed as Kd, often an IC50 or EC50 that approximates it; ≥ and ≤ were set here for values at or beyond the usual limits of such assays.
The target of assay [2] is HLA-A*01:01. Described as above.
For the next assay, the target named is HLA-A*68:01. As to the kind of experiment: IEDB peptide-MHC binding, purified MHC/competitive/radioactivity; filed as Kd, often an IC50 or EC50 that approximates it; ≥ and ≤ were set here for values at or beyond the usual limits of such assays. The conditions noted are these: source organism: Dengue virus 3 Martinique/1243/1999.
The target of another assay is HLA-A*11:01. As to the kind of experiment: IEDB peptide-MHC binding, purified MHC/direct/fluorescence; filed as Kd, often an IC50 or EC50 that approximates it; ≥ and ≤ were set here for values at or beyond the usual limits of such assays. The conditions noted are these: source organism: dengue virus type 2.
The next assay has as its target HLA-B*45:06. As to the kind of experiment: IEDB peptide-MHC binding, purified MHC/competitive/fluorescence; filed as Kd, often an IC50 or EC50 that approximates it; ≥ and ≤ were set here for values at or beyond the usual limits of such assays. As to conditions: source organism: Dengue virus 3 Philippines/H87/1956.
The target of the next assay is HLA-A*31:01. The description is as above. The conditions noted are these: source organism: Dengue virus 3 Philippines/H87/1956.
The next assay concerns the target HLA-B*83:01. Described as above. The conditions noted are these: source organism: Dengue virus 3 Philippines/H87/1956.
Another assay deals with HLA-B*15:42. Described as above. The conditions noted are these: source organism: Dengue virus 3 Philippines/H87/1956.
The next assay has as its target HLA-A*02:06. As to the kind of experiment: IEDB peptide-MHC binding, purified MHC/competitive/radioactivity; filed as Kd, often an IC50 or EC50 that approximates it; ≥ and ≤ were set here for values at or beyond the usual limits of such assays.
The target in assay [3] is HLA-A*68:02. The description is as above. The conditions noted are these: source organism: Dengue virus 3 Martinique/1243/1999.
In a further assay the target is HLA-B*18:01. As to the kind of experiment: IEDB peptide-MHC binding, purified MHC/competitive/fluorescence; filed as Kd, often an IC50 or EC50 that approximates it; ≥ and ≤ were set here for values at or beyond the usual limits of such assays.
Assay [4] addresses HLA-A*26:01. The description is as above.
The target of another assay is HLA-B*27:03. The description is as above.
Assay [5] addresses HLA-B*15:01. Described as above. The conditions noted are these: source organism: Campylobacter jejuni subsp. jejuni NCTC 11168 = ATCC 700819.
Assay [6] deals with HLA-A*29:02. The assay is described as above.
Assay [7] concerns the target HLA-A*02:19. The assay is described as above. As to conditions: source organism: Campylobacter jejuni subsp. jejuni NCTC 11168 = ATCC 700819.
The target of a further assay is HLA-B*57:01. Described as above.
The target of a further assay is HLA-B*51:01. Described as above.
Assay [8] deals with HLA-A*03:01. The assay is described as above. The conditions noted are these: source organism: Campylobacter jejuni subsp. jejuni NCTC 11168 = ATCC 700819.
Assay [9] has as its target HLA-A*02:01. Described as above.
The target of assay [10] is HLA-A*26:01. As to the kind of experiment: IEDB peptide-MHC binding, purified MHC/competitive/radioactivity; filed as Kd, often an IC50 or EC50 that approximates it; ≥ and ≤ were set here for values at or beyond the usual limits of such assays. The conditions noted are these: source organism: Dengue virus 4 Philippines/H241/1956.
A further assay deals with HLA-A*02:03. Described as above.
In a further assay the target is HLA-A*23:01. As to the kind of experiment: IEDB peptide-MHC binding, purified MHC/direct/fluorescence; filed as Kd, often an IC50 or EC50 that approximates it; ≥ and ≤ were set here for values at or beyond the usual limits of such assays. As to conditions: source organism: Araucaria virus.
The target in assay [11] is HLA-B*15:01. The description is as above. As to conditions: source organism: Orthohantavirus andesense.
Assay [12] concerns the target HLA-A*29:02. Described as above. As to conditions: source organism: Araucaria virus.
For a further assay, the target named is HLA-A*24:03. Described as above. As to conditions: source organism: Araucaria virus.
Assay [13] addresses HLA-A*02:19. The assay is described as above. The conditions noted are these: source organism: Araucaria virus.
The next assay concerns the target HLA-A*02:12. Described as above. As to conditions: source organism: Araucaria virus.
The target of a further assay is HLA-A*02:16. The assay is described as above. The conditions noted are these: source organism: Araucaria virus.
Assay [14] addresses HLA-A*03:01. Described as above. As to conditions: source organism: Araucaria virus.
For assay [15], the target named is HLA-A*68:02. Described as above. As to conditions: source organism: Araucaria virus.
Another assay addresses HLA-A*02:11. The assay is described as above. The conditions noted are these: source organism: Araucaria virus.
In another assay the target is HLA-B*15:17. As to the kind of experiment: IEDB peptide-MHC binding, purified MHC/competitive/fluorescence; filed as Kd, often an IC50 or EC50 that approximates it; ≥ and ≤ were set here for values at or beyond the usual limits of such assays. The conditions noted are these: source organism: Araucaria virus.
The next assay has as its target HLA-B*39:01. The assay is described as above. As to conditions: source organism: Araucaria virus.
The next assay deals with HLA-A*69:01. Described as above. As to conditions: source organism: Araucaria virus.
In the next assay the target is HLA-A*30:01. As to the kind of experiment: IEDB peptide-MHC binding, purified MHC/competitive/radioactivity; filed as Kd, often an IC50 or EC50 that approximates it; ≥ and ≤ were set here for values at or beyond the usual limits of such assays. As to conditions: source organism: Dengue virus 1 Brazil/97-11/1997.
Assay [16] deals with HLA-A*01:01. Described as above. As to conditions: source organism: Dengue virus 4 Philippines/H241/1956.
[17] abbreviates: source organism: Dengue virus 1 Singapore/S275/1990.
[18] abbreviates: source organism: Dengue virus 4 Philippines/H241/1956.
[19] abbreviates: source organism: Campylobacter jejuni subsp. jejuni NCTC 11168 = ATCC 700819.
[20] abbreviates: source organism: Araucaria virus.
Setting [21] is: source organism: Dengue virus 2 Peru/IQT2913/1996.
[22] abbreviates: source organism: Dengue virus 2 Thailand/NGS-C/1944.

Take LLENDMKFTV: the Kd in the assay with HLA-A*02:17 (setting [17]) amounted to 115 nM; in the assay with HLA-A*02:01 [1] (setting [17]), 5.76 nM.
On to VSMDQLASY, for which the Kd is 31.4 nM in the assay with HLA-B*46:01 (source organism: Homo sapiens) and 164 nM with HLA-A*01:01 [2] (source organism: Homo sapiens).
As for TVMDIISRK, the Kd with HLA-A*68:01 is 10.5 nM; with HLA-A*11:01, 1.7 nM; in the assay with HLA-B*45:06, not below 5000 nM; in the assay with HLA-A*31:01 it was not below 50000 nM; with HLA-B*83:01, not below 5000 nM; with HLA-B*15:42 it was not below 5000 nM.
With GVFHTMWHV, the dissociation constant Kd with HLA-A*02:06 (source organism: Dengue virus 3 Martinique/1243/1999) was found to be 4.41 nM; with HLA-A*02:17 (setting [18]), 109 nM; with HLA-A*02:01 [1] (setting [18]), 7.59 nM; with HLA-A*68:02 [3], 7.01 nM.
With AVGFFPTGV, the Kd with HLA-B*18:01 (setting [19]) was not below 20000 nM; in the assay with HLA-A*26:01 [4] (setting [19]), not below 20000 nM; in the assay with HLA-B*27:03 (setting [19]), not below 20000 nM; in the assay with HLA-B*15:01 [5], not below 20000 nM; with HLA-B*46:01 (setting [19]) it was not below 20000 nM; in the assay with HLA-A*29:02 [6] (setting [19]), 351 nM. Besides, the Kd is 103 nM with HLA-A*02:19 [7]; not below 20000 nM in the assay with HLA-B*57:01 (setting [19]); not below 20000 nM with HLA-B*51:01 (setting [19]); not below 20000 nM in the assay with HLA-A*03:01 [8]; 2.2 nM in the assay with HLA-A*02:01 [9] (setting [19]).
For the sequence LLAGFMAYM, the Kd amounted to 1210 nM with HLA-A*26:01 [10], 68.5 nM with HLA-A*02:03 (setting [18]), 1.97 nM with HLA-A*02:17 (setting [18]) and 4.7 nM with HLA-A*02:01 [1] (setting [18]).
As to AQKLATKPV, the Kd with HLA-A*23:01 is not below 20000 nM; with HLA-B*15:01 [11], 716 nM; with HLA-A*29:02 [12] it was not below 20000 nM; with HLA-A*24:03, not below 20000 nM; in the assay with HLA-A*02:19 [13], not below 20000 nM; with HLA-A*02:12, not below 20000 nM. In addition, the Kd with HLA-A*02:16, with HLA-A*03:01 [14], in the assay with HLA-A*68:02 [15], with HLA-A*02:11, in the assay with HLA-B*18:01 (setting [20]) and with HLA-A*26:01 [4] (setting [20]) was not below 20000 nM throughout. The Kd in the assay with HLA-B*27:03 (setting [20]), with HLA-B*46:01 (setting [20]), in the assay with HLA-B*15:17, in the assay with HLA-B*39:01, in the assay with HLA-B*57:01 (setting [20]) and with HLA-B*51:01 (setting [20]) was not below 20000 nM each time. Also, the Kd with HLA-A*69:01 and in the assay with HLA-A*02:01 [9] (setting [20]) was not below 20000 nM throughout.
On to GLFGKTQVGV, for which the Kd with HLA-A*02:03 (setting [18]) stood at 0.55 nM; with HLA-A*02:17 (setting [18]) it was 2760 nM; with HLA-A*02:01 [1] (setting [18]), 6.21 nM.
Consider RKSAPSTGGV, for which the values for the Kd with HLA-A*02:17 (source organism: Homo sapiens) and with HLA-A*02:01 [1] (source organism: Homo sapiens) were not below 20600 nM and not below 38700 nM, respectively.
For MVKMGGLGY, the Kd was 28.6 nM with HLA-A*29:02 [6] (source organism: Rotavirus G3) and not below 20000 nM with HLA-A*01:01 [2] (source organism: Rotavirus G3).
LLVKLALITV: the Kd was found to be 0.18 nM with HLA-A*02:03 (setting [18]), 769 nM in the assay with HLA-A*02:06 (setting [18]), 6700 nM with HLA-A*02:17 (setting [18]) and 17.6 nM in the assay with HLA-A*02:01 [1] (setting [18]).
Regarding MLLVLCVTQV, the Kd was 175 nM in the assay with HLA-A*02:03 (setting [21]), 84 nM with HLA-A*02:06 (setting [21]), 843 nM in the assay with HLA-A*02:17 (setting [22]) and 26.5 nM with HLA-A*02:01 [1] (setting [22]).
On to FMKDGRSLV, for which the Kd with HLA-A*02:03 (setting [18]) came out at 16.1 nM; with HLA-A*02:06 (setting [18]), 318 nM; with HLA-A*02:17 (setting [18]) it was 1660 nM; with HLA-A*02:01 [1] (setting [18]), 219 nM.
Consider TMLLMLLPTA, for which the Kd turned out to be 12400 nM in the assay with HLA-A*30:01, 2.59 nM with HLA-A*02:06 (source organism: Dengue virus 1 Brazil/97-11/1997), 661 nM with HLA-A*02:17 (setting [17]) and 30.6 nM with HLA-A*02:01 [1] (setting [17]).
As to VTYECPLLV, the dissociation constant Kd with HLA-A*01:01 [16] worked out at 343 nM; with HLA-A*02:17 (setting [18]), 562 nM; with HLA-A*02:01 [1] (setting [18]) it was 26.6 nM.
As for YLALIATFKI, the Kd with HLA-A*02:17 (source organism: Dengue virus 3 China/80-2/1980) turned out to be 885 nM.
